Laboratory results reported in patent US11529426B2, “Methods and compositions for targeting tissue lesions” (priority 2017, dated 2022).

B1: MabCII: monoclonal antibody to type II collagen from E4-D4 (E4) hybridoma clone; mouse IgG2a heavy chain, kappa light chain; VH/VL SEQ ID NO: 6/14 (antibody, listed as Mus musculus, V domains shown)
VH: EVQLVESGGGLVKPGGSLKVSCEASGFTFSDYGMHWVRQAPEKGLEWVAYISSVSSTIYYADTVEGRFTISRDNVRNTLFLQMTSLRSEDTAMYYCAREGWLPLFAFWGQGTLVTVSA
VL: DIVLTQSHKFMSTSVGDRVSITCKASQDVSITVAWYQQKPGQSPKLLIYSASYRNPGVPDRFTGSGSGTDFNFTISTVQAEDLAVYYCQQYYIIPWTFGGGTKLEFKR

What was measured:
[1] = tested on: collagen-induced arthritis; conditions: mice, reference [20]; cited from earlier work
[2] = tested on: mechanically loaded mouse knee; test: Mechanically loaded mouse knee (PTOA), E4 nanosomes: cartilage damage by MabCII680 fluorescence; type: in vivo, C57BL/6 mice; conditions: intravenous, 100 uM TPCA-1, 3 injections, two-week loading; vs empty nanosomes (Control)
From the text: (§1) Targeted nanosomes were generated from lipids and conjugated to purified E4-D4 (E4) monoclonal antibody to type II collagen that was developed from a hybridoma isolated from mice immunized with type II collagen. Briefly, the lipid film which contained dioleoyl-sn-glycero-3-phosphocholine (DOPC), cholesterol, 1,2-distearoyl-sn-glycero-3-phosphoethanolamine-N-[maleimide (polyethylene glycol) 2000] (DSPE-PEG-maleimide) and TPCA-1 was rehydrated with phosphate buffered saline (PBS) and sonicated. The rehydrated lipids were repeatedly extruded through a 200 nm porous membrane to generate 200 nm 1-3 walled nanosomes. The E4 MabCII was thiolated using Traut's reagent, then mixed with the nanosomes for conjugation. […] The E4 MabCII was also conjugated to the near infrared dye XenoLight CF 680 (PerkinElmer) used for the final quantitative imaging of arthritic damage. […]
(§2) At the completion of the two-week loading period, mice were injected retro-orbitally with 100 μL composite mixture of 50 μL of 1 mg/ml E4 monoclonal antibody to type II collagen MabCII680 labeled with Xenolight CF 680 fluorescent dye and 50 μL of MMPSense-750 (Perkin-Elmer, Waltham, Mass.), a substrate that fluoresces when cleaved by MMPs. After 24 hours, the mice were anesthetized and the knee joints were optically scanned for each type of fluorescence using a Lumina XR Imaging System (Perkin Elmer, Waltham, Mass.).

[3] = tested on: mechanically loaded mouse knee; test: Mechanically loaded mouse knee, D1 2G nanosomes: cartilage damage by MabCII680 fluorescence; type: in vivo, C57BL/6 mice; conditions: intraarticular 50 μL, 500 μM TPCA-1, 2 injections, two-week loading; vs PBS
From the text: Targeted nanosomes were generated from lipids and conjugated to purified D1 2G monoclonal antibody from a hybridoma isolated from mice immunized with type II collagen (MabCII). Briefly, the lipid film which contained 5.2 μmol dioleoyl-sn-glycero-3-phosphocholine (DOPC), 4.5 μmol cholesterol, 0.3 μmol 1,2-distearoyl-sn-glycero-3-phosphoethanolamine-N-[maleimide (polyethylene glycol) 2000] (DSPE-PEG-maleimide) and TPCA-1 was rehydrated with phosphate buffered saline (PBS) and sonicated. The rehydrated lipids were repeatedly extruded through a 200 nm porous membrane to generate 200 nm 1-3 walled nanosomes. The MabCII were thiolated using Traut's reagent, then mixed with the nanosomes for conjugation. After conjugation, the reaction mixture was chromatographed on a Sepharose CL-4B column to separate the free antibodies from the coupled liposomes. […]
as §2, with “of” for “of 1 mg/ml E4”, “(MabCII680)” for “MabCII680”, “XenoFluor” for “Xenolight CF”, “680 (XF680; Caliper)” for “680”, “Mass.)” for “Mass.),”, “XR” for “XR Imaging System”

MMPs = test: Mechanically loaded mouse knee (PTOA), E4 nanosomes: MMP activity by MMPSense-750 fluorescence; type: in vivo, C57BL/6 mice; conditions: intravenous, 100 uM TPCA-1, 3 injections, two-week loading; vs control nanosomes
From the text: as §1, §2

[4] = tested on: exposed type II collagen in articular cartilage explants; test: Binding of fluorescent avidin/biotinylated reparative cells to cartilage explants pre-incubated with biotinylated antibody (IVIS imaging); design: species or system domestic pigs; conditions: for binding of fluorescent avidin/biotinylated ADSC cells to cartilage explant: biotinylated antibody 1 hr
Description: Type II collagen monoclonal antibody (MabCII) at a concentration of 1 mg/mL was buffer exchanged with phosphate buffered saline (PBS). The linking reagent NHS-PEG4-Biotin (Thermo Scientific) was then brought up in distilled water to a recommended 20-fold molar excess of Biotin per mg/mL of MabCII. The biotinylated MabCII sample was then added to a Zeba spin desalting column (Thermo Scientific) column and centrifuged at 1000×g for 2 minutes in order to remove excess biotin reagent. The collected flow-through solution was the purified sample. As a control, irrelevant monoclonal mouse IgG antibody of the same subclass (Isotope Control from R&D Systems, Inc.) was similarly prepared.
The reparative cells (isolated chondrocytes or chondrogenically differentiated ADSCs) previously labeled with a fluorescent dye (Vivotrack 680: PerkinElmer, MA), were re-suspended at 1×10^6 cells/ml in fresh serum-free medium with 250 mM sucrose, 1 mM HEPES, and 1 mM CaCl2. The PE-PEG-Biotin stock solution (1 mM) was then added to the various tubes at 25 μM final concentration and incubated for 60 minutes to allow PE-PEG-Biotin integration into the cell membranes. Neutravidin was dissolved in PBS and added to the PE-PEG-Biotin labeled cells at a final concentration of […] of Neutravidin. The tubes were then allowed to incubate on a rocker platform for 30 minutes at 37° C. for binding. After incubation, the cells were centrifuged, supernatants were discarded, and serum-free medium was added and the cells vortexed ready to incubate with the cartilage explants.
Cartilage explants were harvested from the articular cartilage of femoral condyles of domestic pigs ranging from 25 to 30 kilograms and were punched from cartilage explants taken from the surface of articular cartilage with a 6 mm dermal punch to provide equivalent surface areas. The cartilage explants were divided into two groups for incubation with biotinylated Mab; one group that would be mechanically damaged and one group with no damage (normal). […]

[5] = tested on: type II collagen (Col2a1) expression; test: Type II collagen gene expression (PCR) of reparative cells bound to devitalized scratched cartilage explants; type: cell-based, pig; conditions: one week
Description: For evaluation of gene expression of the reparative cells attaching to cartilage explants with the two step MabCII, biotin-avidin system described above, cartilage explants were devitalized by freeze thawing and washed three times before incubation with biotinylated MabCII and avidin/biotinylated chondrocytes or avidin/biotinylated chondrogenically differentiated ADSC cells as described above. After washing to remove unbound cells, the cells bound to the explants were incubated for one week in complete F12K culture medium with 10% FCS. The explants were then washed and the RNA extracted with Trizol for quantitative polymerase chain reaction (PCR) for the cartilage specific-type II collagen expression. Quantitative gene expression was analyzed by PCR using primers specific for type II collagen (Col-II) and the housekeeping gene glyceraldehyde-3-phosphate dehydrogenase (GAPDH). Gene expression was calculated as 2^−ΔΔCT after normalization to GAPDH expression. For some experiments gene expression from avidin/biotinylated cells that were incubated in standard tissue culture wells or incubated with cartilage with no antibody for the same period of time were set as 1+/− standard error of the mean (SEM) and compared to same type of cells binding to the cartilage explants.

Molecule	proinflammatory mediators in collagen-induced arthritis [1]	cartilage damage: binding of MabCII680, intensity in region of interest [2]	cartilage damage: binding of MabCII680, intensity in region of interest [3]	MMP activity: fluorescence of MMPSense-750 (MMPs)	binding of isolated articular chondrocytes to cartilage explant ([4]; avidin/biotinylated chondrocytes, data not shown)	binding of fluorescent avidin/biotinylated ADSC cells to cartilage explant ([4]; damaged (scratched) cartilage)	binding of fluorescent avidin/biotinylated ADSC cells to cartilage explant ([4]; normal (unscratched) articular cartilage)	expression of CII relative to cells maintained without cartilage in standard tissue culture ([5]; articular chondrocytes on explants)	type II collagen (Col2a1) gene expression of targeted cells ([5]; avidin/biotinylated ADSC, FIG. 9B)	type II collagen (Col2a1) gene expression of targeted cells ([5]; avidin/biotinylated chondrocytes, FIG. 9A)
NC(=O)Nc1sc(-c2ccc(F)cc2)cc1C(N)=O [TPCA-1, 2-[(aminocarbonyl)amino]-5-(4-fluorophenyl)-3-thiophenecarboxamide]	reduce proinflammatory mediators such as TNF-α	did not show significant improvement	no improvement	did not show significant reduction	–	–	–	–	–	–
B1	–	–	–	–	same specificity of binding	significant amount of reparative cells binding	not detectable	equivalent	continue to express type II collagen	continue to express type II collagen
